In the supplement of paper PMC10567573:

B1: C9orf9 (parent)
chain: TKHKCRQLTKASLKPRGCSKPPWR
B2: TMEM192 (parent)
chain: ILGKVILWILHLLLECYIQYHHSK

Variants of: B1
Experiment: protein stability index of a GFP-peptide fusion (GPS, HEK-293T) (PSI 1-6); higher = more stable
Conditions: c terminus: a fixed tail appended
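Note: lentivirally expressed fusions sorted by FACS into six bins by GFP to DsRed ratio, PSI derived from sequencing read proportions per bin multiplied by bin number.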

Point of comparison: TKHKCRQLTKASLKPRGCSKPPWN [R24N], protein stability index 2.79. Against it:
- TKHKCRQLTKASLKPRGCSKLPWR [P21L] — higher, 3.59
- TKHKCRQLTKASLKPRGCSKMPWR [P21M] — lower, 2.64
- TKHKCRQLTKASLKPRGCSKCPWR [P21C] — lower, 2.36
- TKHKCRQLTKASLKPRGCSKQPWR [P21Q] — higher, 3.48
- TKHKCRQLTKASLKPRGCSKFPWR [P21F] — the same, 2.79
- TKHKCRQLTKASLKPRGCSKNPWR [P21N] — higher, 2.9
- TKHKCRQLTKASLKPRGCSKHPWR [P21H] — higher, 3.41
- TKHKCRQLTKASLKPRGCSKKPWR [P21K] — lower, 2.76
- TKHKCRQLTKASLKPRGCSKWPWR [P21W] — lower, 2.28
- TKHKCRQLTKASLKPRGCSKSPWR [P21S] — lower, 2.4
- TKHKCRQLTKASLKPRGCSKEPWR [P21E] — the same, 2.79
- TKHKCRQLTKASLKPRGCSKVPWR [P21V] — higher, 3.09
- TKHKCRQLTKASLKPRGCSKGPWR [P21G] — higher, 2.81
- TKHKCRQLTKASLKPRGCSKIPWR [P21I] — higher, 3.18
- TKHKCRQLTKASLKPRGCSKTPWR [P21T] — lower, 2.56
- TKHKCRQLTKASLKPRGCSKYPWR [P21Y] — lower, 2.13
- TKHKCRQLTKASLKPRGCSKDPWR [P21D] — higher, 2.93
- TKHKCRQLTKASLKPRGCSKPGWR [P22G] — higher, 3.09
- TKHKCRQLTKASLKPRGCSKPCWR [P22C] — lower, 1.83
- TKHKCRQLTKASLKPRGCSKPQWR [P22Q] — higher, 2.99
- TKHKCRQLTKASLKPRGCSKPYWR [P22Y] — lower, 2.62
- TKHKCRQLTKASLKPRGCSKPFWR [P22F] — lower, 1.73
- TKHKCRQLTKASLKPRGCSKPMWR [P22M] — lower, 2.76
- TKHKCRQLTKASLKPRGCSKPEWR [P22E] — higher, 2.98
- TKHKCRQLTKASLKPRGCSKPIWR [P22I] — lower, 2.02
- TKHKCRQLTKASLKPRGCSKPWWR [P22W] — lower, 1.89
- TKHKCRQLTKASLKPRGCSKPDWR [P22D] — lower, 2.38
- TKHKCRQLTKASLKPRGCSKPNWR [P22N] — lower, 2.32
- TKHKCRQLTKASLKPRGCSKPAWR [P22A] — higher, 2.97
- TKHKCRQLTKASLKPRGCSKPKWR [P22K] — higher, 3.03
- TKHKCRQLTKASLKPRGCSKPRWR [P22R] — lower, 2.51
- TKHKCRQLTKASLKPRGCSKPHWR [P22H] — higher, 2.98
- TKHKCRQLTKASLKPRGCSKPTWR [P22T] — higher, 3.03
- TKHKCRQLTKASLKPRGCSKPSWR [P22S] — higher, 3.14
- TKHKCRQLTKASLKPRGCSMPPWR [K20M] — lower, 1.76
- TKHKCRQLTKASLKPRGCSHPPWR [K20H] — lower, 2.76
- TKHKCRQLTKASLKPRGCSWPPWR [K20W] — lower, 1.94
- TKHKCRQLTKASLKPRGCSRPPWR [K20R] — higher, 3.14
- TKHKCRQLTKASLKPRGCSEPPWR [K20E] — lower, 2.41
- TKHKCRQLTKASLKPRGCSYPPWR [K20Y] — higher, 3.56
- TKHKCRQLTKASLKPRGCSDPPWR [K20D] — lower, 1.92
- TKHKCRQLTKASLKPRGCSFPPWR [K20F] — lower, 2.32
- TKHKCRQLTKASLKPRGCSIPPWR [K20I] — lower, 2.37
- TKHKCRQLTKASLKPRGCSTPPWR [K20T] — lower, 2.21
- TKHKCRQLTKASLKPRGCSPPPWR [K20P] — higher, 3.42
- TKHKCRQLTKASLKPRGCSNPPWR [K20N] — higher, 2.95
- TKHKCRQLTKASLKPRGCSVPPWR [K20V] — lower, 2.2
- TKHKCRQLTKASLKPRGCSAPPWR [K20A] — lower, 2.41
- TKHKCRQLTKASLKPRGCSQPPWR [K20Q] — lower, 2.45
- TKHKCRQLTKASLKPRGCSLPPWR [K20L] — lower, 2.3
- TKHKCRQLTKASLKPRGCSSPPWR [K20S] — higher, 2.9
- TKHKCRQLTKASLKPRGCSCPPWR [K20C] — lower, 2.23
- TKHKCRQLTKASLKPRGCSGPPWR [K20G] — lower, 2.64
- TKHKCRQLTKASLKPRGCSKPPDR [W23D] — higher, 4.3
- TKHKCRQLTKASLKPRGCSKPPHR [W23H] — higher, 4.46
- TKHKCRQLTKASLKPRGCSKPPIR [W23I] — higher, 3.56
- TKHKCRQLTKASLKPRGCSKPPPR [W23P] — higher, 4.18
- TKHKCRQLTKASLKPRGCSKPPKR [W23K] — higher, 4.63
- TKHKCRQLTKASLKPRGCSKPPNR [W23N] — higher, 4.32
- TKHKCRQLTKASLKPRGCSKPPGR [W23G] — lower, 2.73
- TKHKCRQLTKASLKPRGCSKPPFR [W23F] — lower, 2.67
- TKHKCRQLTKASLKPRGCSKPPRR [W23R] — higher, 3.96
- TKHKCRQLTKASLKPRGCSKPPMR [W23M] — higher, 3.05
- TKHKCRQLTKASLKPRGCSKPPLR [W23L] — higher, 3.72
- TKHKCRQLTKASLKPRGCSKPPCR [W23C] — higher, 2.89
- TKHKCRQLTKASLKPRGCSKPPQR [W23Q] — higher, 3.46
- TKHKCRQLTKASLKPRGCSKPPSR [W23S] — higher, 2.84
- TKHKCRQLTKASLKPRGCSKPPAR [W23A] — higher, 3.89
- TKHKCRQLTKASLKPRGCSKPPVR [W23V] — higher, 3.28
- TKHKCRQLTKASLKPRGCSKPPER [W23E] — higher, 4.29
- TKHKCRQLTKASLKPRGCSKPPYR [W23Y] — higher, 3.86
- TKHKCRQLTKASLKPRGCSKPPTR [W23T] — higher, 3.93
- TKHKCRQLTKASLKPRGCYKPPWR [S19Y] — lower, 1.99
- TKHKCRQLTKASLKPRGCWKPPWR [S19W] — lower, 2.14
- TKHKCRQLTKASLKPRGCSKPPWC [R24C] — lower, 1.99
- TKHKCRQLTKASLKPRGCSKPPWH [R24H] — higher, 2.82
- TKHKCRQLTKASLKPRGCSKPPWI [R24I] — lower, 1.43
- TKHKCRQLTKASLKPRGCSKPPWD [R24D] — higher, 3.17
- TKHKCRQLTKASLKPRGCSKPPWA [R24A] — higher, 2.95
- TKHKCRQLTKASLKPRGCSKPPWW [R24W] — lower, 2.51
- TKHKCRQLTKASLKPRGCSKPPWQ [R24Q] — lower, 2.2
- TKHKCRQLTKASLKPRGCSKPPWP [R24P] — lower, 2.53
- TKHKCRQLTKASLKPRGCSKPPWM [R24M] — lower, 2.57
- TKHKCRQLTKASLKPRGCSKPPWF [R24F] — lower, 2.14
- TKHKCRQLTKASLKPRGCSKPPWY [R24Y] — lower, 2.59
- TKHKCRQLTKASLKPRGCSKPPWS [R24S] — lower, 2.18
- TKHKCRQLTKASLKPRGCSKPPWE [R24E] — higher, 3.22
- TKHKCRQLTKASLKPRGCSKPPWV [R24V] — lower, 2.14
- TKHKCRQLTKASLKPRGCSKPPWG [R24G] — lower, 2.12
- TKHKCRQLTKASLKPRGCSKPPWT [R24T] — lower, 2.73
- TKHKCRQLTKASLKPRGCSKPPWL [R24L] — lower, 1.72
- TKHKCRQLTKASLKPRGCSKPPWK [R24K] — higher, 3.63

Variants of: B2
Experiment: as above
Conditions: c terminus: a fixed tail appended

In the case of ILGKVILWILHLLLECSIQYHHSK [Y17S], the protein stability index is reported as 3.71.
